Consider 2 molecules from US20200199236A1 (BIO THERA SOLUTIONS, published 2020).

For assay [1], the target named is T1, CD20 (UniProt P11836 1-297, limits assumed).
T1 construct: whole, on cells; Endogenous CD20 on Raji and Wil2-s cell lines; also called CD20 on Raji cells; CD20 on Wil2-s cells
T1 sequence (looked up): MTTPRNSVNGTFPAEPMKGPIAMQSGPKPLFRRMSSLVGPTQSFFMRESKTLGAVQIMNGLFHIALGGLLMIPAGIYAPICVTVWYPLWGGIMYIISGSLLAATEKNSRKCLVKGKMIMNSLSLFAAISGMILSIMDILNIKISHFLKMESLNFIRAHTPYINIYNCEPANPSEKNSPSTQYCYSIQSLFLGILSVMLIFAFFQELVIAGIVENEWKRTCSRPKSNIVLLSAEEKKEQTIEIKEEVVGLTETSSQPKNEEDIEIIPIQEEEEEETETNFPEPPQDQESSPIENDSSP
The assay can be described thus: flow cytometry; Mean Kd over Raji and Wil2-s cells. In general terms: Flow cytometry measures light scatter and fluorescence of single cells or particles in a stream.

Assay [2] addresses T1, CD20. The assay can be described thus: flow cytometry on Raji cells; Kd=[Ab]*{Fmax/(F-Fback)-1}.
For assay [3], the target named is T1, CD20. Kind of assay: flow cytometry on Wil2-s cells; Kd=[Ab]*{Fmax/(F-Fback)-1}.
The target in assay [4] is T1, CD20. Kind of assay: flow cytometry, antibody titrated on Raji cells, FITC anti-human IgG1 Fab secondary.
For assay [5], the target named is T1, CD20. Kind of assay: flow cytometry, antibody titrated on Wil2-s cells, FITC anti-human IgG1 Fab secondary.
The target of the next assay is T2, FcγRIIIa 158V (UniProt P08637 17-208, biotin-labeled (site not stated)).
T2 construct: also called biotin-labeled FcγRIIIa 158V
T2 sequence (P08637 17-208 F176V): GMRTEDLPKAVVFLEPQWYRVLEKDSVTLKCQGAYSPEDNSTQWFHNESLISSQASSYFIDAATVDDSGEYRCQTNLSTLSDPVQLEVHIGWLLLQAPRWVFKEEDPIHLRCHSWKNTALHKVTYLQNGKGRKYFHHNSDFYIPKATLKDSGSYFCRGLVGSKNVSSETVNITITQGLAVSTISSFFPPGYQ
Kind of assay: biosensor with SA sensor, biotin-FcγRIIIa 158V loaded, antibody in solution (7 concentrations, 2x gradient from 500 nM). Here is the method:
The sensor was pre-wetted in PBS for 10 min. […] AB solution, […], regeneration buffer, drug diluent and neutralization buffer were sequentially added to the corresponding columns of a 96-well plate. The SA sensor operates as follows: Baseline: detected the baseline in AB, 150 s; Association: combined in the gradient concentration of drug diluent sample and blank (AB) for 90 s; Dissociation: dissociated in AB for 120 s; Regeneration: regenerated in NaOH (pH 10.5) for 5 s; Neutralization: neutralized in AB for 5 s. The regeneration and neutralization cycles were carried out for 3 times. The collected data were analyzed by the instrument data analysis software Acquisition 8.2. Taking Baseline acquisition signal as a baseline and subtracting the reference signal (double deduction of sample blank and sensor blank), the data were subject to group analysis and fitted.

B1: Rituximab (antibody, V domains shown)
VH: QVQLQQPGAELVKPGASVKMSCKASGYTFTSYNMHWVKQTPGRGLEWIGAIYPGNGDTSYNQKFKGKATLTADKSSSTAYMQLSSLTSEDSAVYYCARSTYYGGDWYFNVWGAGTTVTVSA
VL: QIVLSQSPAILSASPGEKVTMTCRASSSVSYIHWFQQKPGSSPKPWIYATSNLASGVPVRFSGSGSGTSYSLTISRVEAEDAATYYCQQWTSNPPTFGGGTKLEIK
The Kd is the free concentration of one partner at which half of the binding sites on the other are occupied at equilibrium, for simple one-to-one binding. The low end stands for a tighter complex, the high end for a looser complex. Usually IC50 stands for the concentration needed to halve the response being measured. The low end stands for greater potency, the high end for weaker potency. In the case of B1, the equilibrium dissociation constant (Kd) with CD20 [1] amounted to 0.0143 µM; in the assay with CD20 [2], 0.0127 µM; with CD20 [3], 0.016 µM. Besides, the IC50 in the assay with CD20 [4] amounted to 0.0133 µM; with CD20 [5] it was 0.0168 µM.

B2: BAT4306F (antibody, human IgG1)
light: DIVMTQTPLSLPVTPGEPASISCRSSKSLLHSNGITYLYWYLQKPGQSPQLLIYQMSNLVSGVPDRFSGSGSGTDFTLKISRVEAEDVGVYYCAQNLELPYTFGGGTKVEIKR
heavy: not shown
modifications: N-linked oligosaccharide without fucose (produced in FUT8 knockout CHO-2G8 / CHO-BAT-KF cells)
notes: Humanized anti-CD20 IgG with B-HH6 heavy and B-KV1 light variable regions from B-Ly1 (WO2005044859); Non-fucosylated glycoform; also called carbohydrate chain modified BAT4306F
The molecule B2 returned a Kd in the assay with FcγRIIIa 158V of 0.0257 µM.
